From patent publication US20090275130A1

Biological target: receptors for SCF (kit) on EML clone 1 cells (UniProt P05532)
Test: cell-based or functional assay

Sequence of UniProt P05532 (P05532 25-979 limits assumed): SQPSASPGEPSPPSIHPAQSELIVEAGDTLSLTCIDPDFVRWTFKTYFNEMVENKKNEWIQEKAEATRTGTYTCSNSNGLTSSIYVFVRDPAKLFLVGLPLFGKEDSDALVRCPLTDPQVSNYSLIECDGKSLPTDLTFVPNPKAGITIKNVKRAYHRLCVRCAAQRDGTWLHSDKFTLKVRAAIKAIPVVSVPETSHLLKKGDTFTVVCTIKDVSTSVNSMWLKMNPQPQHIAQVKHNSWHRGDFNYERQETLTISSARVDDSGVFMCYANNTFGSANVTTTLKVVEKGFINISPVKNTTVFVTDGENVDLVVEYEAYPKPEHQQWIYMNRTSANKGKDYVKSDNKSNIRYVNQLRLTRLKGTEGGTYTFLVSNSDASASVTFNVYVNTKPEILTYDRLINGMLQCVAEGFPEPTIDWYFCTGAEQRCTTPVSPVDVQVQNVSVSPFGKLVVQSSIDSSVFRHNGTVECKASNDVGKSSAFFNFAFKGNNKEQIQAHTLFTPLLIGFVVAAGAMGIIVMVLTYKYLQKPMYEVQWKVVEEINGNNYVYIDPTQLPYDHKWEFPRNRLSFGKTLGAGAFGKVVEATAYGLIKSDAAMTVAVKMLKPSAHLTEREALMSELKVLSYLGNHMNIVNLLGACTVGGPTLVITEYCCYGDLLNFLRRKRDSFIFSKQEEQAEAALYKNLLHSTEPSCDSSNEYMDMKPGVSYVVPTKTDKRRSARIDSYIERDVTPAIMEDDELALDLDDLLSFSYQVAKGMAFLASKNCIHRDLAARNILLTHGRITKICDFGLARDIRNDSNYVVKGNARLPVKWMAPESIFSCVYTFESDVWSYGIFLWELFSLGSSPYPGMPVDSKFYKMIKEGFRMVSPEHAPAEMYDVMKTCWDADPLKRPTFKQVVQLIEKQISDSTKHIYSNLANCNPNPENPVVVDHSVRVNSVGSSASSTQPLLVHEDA

fold-increase over control of cell proliferation of EML cells (total DNA, 5 days), 10 nM SCF: 1.25 fold | fold-increase over control of cell proliferation of EML cells (total DNA, 5 days), 50 nM SCF: 2.4 fold
Substance: Stem Cell Factor (SCF) (ligand)
